In publication doi:10.1101/2019.12.17.879908:

How the values were obtained:
[1] = target: Dimethylformamidase (DMFase) large subunit expressed and purified without the small subunit (Paracoccus sp. strain DMF); test: SEC
[2] = target: Dimethylformamidase (DMFase) α2β2 complex, recombinant wild type (Paracoccus sp. strain DMF); test: cryo-EM structure

| stoichiometry N [1] | stoichiometry N [2] | Substance |
| --- | --- | --- |
| 2 |  | Dimethylformamidase (DMFase) large subunit expressed and purified without the small subunit (natural protein) |
|  | 2 | Dimethylformamidase (DMFase) α2β2 complex, recombinant wild type |
